Laboratory results published in patent US20240076386A1 (Pfizer, published 2024).

Assays:
[1] = target: T1, cynomolgus monkey E-selectin, cell-surface expressed (cynomolgus monkey, UniProt P16581 22-610 (human entry)); assay: flow cytometry, CHO cells
T1 construct: also called CHO-cynomolgus monkey E-selectin cells; cynomolgus monkey CHO-E
T1 chain: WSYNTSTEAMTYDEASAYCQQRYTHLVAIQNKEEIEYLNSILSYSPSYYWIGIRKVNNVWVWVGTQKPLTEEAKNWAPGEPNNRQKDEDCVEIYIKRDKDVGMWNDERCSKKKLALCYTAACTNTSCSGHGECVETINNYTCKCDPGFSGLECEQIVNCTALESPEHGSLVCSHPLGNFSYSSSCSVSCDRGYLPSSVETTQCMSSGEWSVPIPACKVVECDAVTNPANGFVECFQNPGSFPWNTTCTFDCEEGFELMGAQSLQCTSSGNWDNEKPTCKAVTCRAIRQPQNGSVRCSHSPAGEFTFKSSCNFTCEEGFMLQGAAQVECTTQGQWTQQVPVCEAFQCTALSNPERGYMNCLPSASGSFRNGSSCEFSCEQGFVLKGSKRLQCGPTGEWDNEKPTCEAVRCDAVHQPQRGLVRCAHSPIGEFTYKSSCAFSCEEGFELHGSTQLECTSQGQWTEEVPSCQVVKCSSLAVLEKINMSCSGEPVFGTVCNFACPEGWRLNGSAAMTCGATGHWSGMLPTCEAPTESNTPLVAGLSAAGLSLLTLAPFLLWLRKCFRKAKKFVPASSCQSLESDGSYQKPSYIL
Description: (§1) Cells were maintained in growth medium at 37° C., 5% CO₂ and 95% air in a humidified incubator. Methotrexate or Zeocin were removed from the medium prior to culture for experiments. CHO-E selectin cells or P-selectin cells were detached from T-150 flasks using citric saline (135 mM KCl, 15 mM sodium citrate) and immediately re-calcified with the addition of CaCl₂) to the detached cells to a final concentration of 1 mM. Growth media was immediately added to the detached cells, then centrifuged at 300×g for 5 minutes at room temperature to pellet the cells. Cells were plated into 96-well V-bottom plates in cold CHO buffer consisting of phosphate buffered saline (PBS), pH 7.4 containing bovine serum albumin (BSA; Sigma-Aldrich) at final concentration of 1%, calcium chloride at final concentration of 1 mM, and sodium azide at a final concentration of 0.1%, for 5 minutes on wet ice. After incubation, the cells were centrifuged at 300×g for 2 minutes at 4° C. to remove the buffer.
(§2) After incubation, antibodies were removed and the cells were washed three times by centrifugation at 300×g for 1 minute at 4° C. and resuspended in cold CHO buffer. The washed cells were incubated for 30 minutes on wet ice with 100 μL of a 1:1000 dilution of APC-conjugated AffiniPure F(ab′)₂ Fragment Goat Anti-human IgG, Fcγ (Jackson Imnnunoresearch). The cells were washed three or four times prior to resuspension in CHO buffer for flow cytometric analysis. A Becton Dickinson LSRFortessa instrument using 640 nanometer laser line was used to acquire cell fluorescence data. Geometric mean fluorescence of cells was analyzed by FlowJo software package (FlowJo, LLC) and plotted against antibody concentration. The estimated EC₅₀ values were calculated using nonlinear regression analysis in the Prism suite (GraphPad, version 8) (Table 8).

[2] = target: T2, human E-selectin, cell-surface expressed (human, UniProt P16581 22-610); assay: flow cytometry, CHO cells
T2 construct: also called CHO-human E-selectin cells; human CHO-E
T2 sequence: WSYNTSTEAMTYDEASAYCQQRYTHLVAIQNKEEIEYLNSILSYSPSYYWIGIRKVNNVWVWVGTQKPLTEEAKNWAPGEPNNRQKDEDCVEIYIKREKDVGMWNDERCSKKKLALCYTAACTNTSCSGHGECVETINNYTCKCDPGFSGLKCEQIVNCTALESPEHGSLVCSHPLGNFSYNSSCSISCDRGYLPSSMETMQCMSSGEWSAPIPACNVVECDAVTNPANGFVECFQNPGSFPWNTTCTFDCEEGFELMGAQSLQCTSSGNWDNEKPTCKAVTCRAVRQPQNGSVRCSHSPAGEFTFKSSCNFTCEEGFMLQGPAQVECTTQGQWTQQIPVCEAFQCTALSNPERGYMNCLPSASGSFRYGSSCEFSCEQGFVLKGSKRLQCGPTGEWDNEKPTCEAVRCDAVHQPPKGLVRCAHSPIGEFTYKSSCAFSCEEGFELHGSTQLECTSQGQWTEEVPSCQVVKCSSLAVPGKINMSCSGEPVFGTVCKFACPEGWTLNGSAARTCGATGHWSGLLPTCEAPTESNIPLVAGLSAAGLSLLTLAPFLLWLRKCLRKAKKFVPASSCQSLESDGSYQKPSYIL
Description: as §1, §2

[3] = target: T2, human E-selectin, cell-surface expressed; assay: competition ELISA on CHO cells vs sialyl Lewis A-PAA-biotin/SA-HRP
Description: The ability of anti-E-selectin antibodies to neutralize ligand binding was assessed in a static neutralization assay using a competition enzyme-linked immunosorbent assay (ELISA) to evaluate the neutralization of the sialyl Lewis antigen to Chinese hamster ovary cells (CHO) engineered to express E-selectin.
Briefly, CHO cells expressing human E-selectin were grown in culture medium (MEM (Minimum Essential Medium) Alpha Medium, supplemented with 10% dialyzed fetal bovine serum, 100 nM methotrexate and 100 Units/mL penicillin and 100 μg/mL streptomycin) and were seeded at 12,500 cells per well into a 96 well tissue culture plate and incubated at 37° C., 5% CO₂ for 48 hours to form a confluent monolayer. Plates were subsequently washed twice with 200 μL of calcium magnesium free phosphate buffered saline (PBS). […] Plates were then washed twice with 200 μL of calcium magnesium free PBS. Following the incubation, the cells were washed twice with 200 μL of wash buffer containing 2 mM of calcium chloride (50 mM TRIS [trisaminomethane], 150 mM sodium chloride; 0.05% polysorbate 20, pH 7.4; 2 mM of calcium chloride). Signal was developed by adding 100 μL of 1-Step Ultra TMB substrate (Thermo Scientific, 34028) and incubating for 30 minutes at room temperature. Reactions were stopped using 2 M of sulfuric acid and absorbance read at 450 nm (Spectramax M5e). Data were analyzed and graphed using GraphPad Prism software (Version 8.0.2).

Binder | EC50 [1] | EC50 [2] | IC50 [3]
anti-E-selectin antibody 0158 chimera (antibody, human IgG1, kappa, V domains shown, rat VH/VL on effector-null human IgG1 and human kappa) VH: QVQLKESGPGLVQPSETLSLTCTVSGFSISTYNVHWLRQPPGKGLEWMGMMWSGGSPDYNSALKSRLSISRDTSKNQVFLKMNSLQSEDTTTYYCARWGGGFDYWGQGVMVTVSS VL: DIVLTQSPTTLSVTPGETVSLSCRASHSIGTNLHWYQQKTNESPRLLIKFTSQSISGIPSRFSASGSGTDFTLNINNVEFDDVSSYFCQQTQSWPLTFGSGTKLEIKR | 14 nM | 3.75 nM | 2.87 nM
anti-E-selectin antibody 0180 chimera (antibody, human IgG1, kappa, V domains shown, rat VH/VL on effector-null human IgG1 and human kappa) VH: EVQLQQSGAELGKPGTSVKLSCKVSGYKIRSSYMHWVNQRPGKGLEWIGRIDPANGNTIYGDKFKSKATLTSDTSSNTAYIQLSQLKSDDTAIYFCAIDIGTTFDYWGQGVMVTVSS VL: DIQMTQSPSFLSASVGDRVTINCKASQHINRYLNWYQQKLGEAPKLLIYDANNLQTGIPSRFSGSGSGTDFTLTISSLQPEDVATYFCLQHNSWPNTFGAGTKLELKR | 3.66 nM | 4.31 nM | 3.83 nM
anti-E-selectin antibody 0164 chimera (antibody, human IgG1, kappa, V domains shown, rat VH/VL on effector-null human IgG1 and human kappa) VH: EVQLQQSGAEFGKPGTSVKLSCKVSGYNIRSSYMHWVNQRPGKGLEWIGRIDPANGNTIYAEKFKIKAILTADSSSNTAYMQLSQLKSDDTAIYFCAMDLYSTSEYWGQGVMVTVSS VL: DIQMTQSPSFLSASVGDRVTINCKTSQNINRYLNWYQQKLGEAPKLLIYNANSLQTGIPSRFSASGSGTDFTLTINSLQPEDVATYFCLQDNSWPLTFGSGTKLEIKR | 1.73 nM | 4.43 nM | 2.77 nM
anti-E-selectin antibody 0039 chimera (antibody, human IgG1, kappa, V domains shown, rat VH/VL on effector-null human IgG1 and human kappa) VH: QVQLKETGPGLVQPTQTLSITCTVSGFSLTGYYMQWVRQTPGKGLEWMGFIRSSGSTEYNSEFKSRLSISRDTSKNQVFLKMNSLKTEDTGVYYCARCPYKYSSFVYVGVMDAWGQGAPVTVSS VL: EIVMTQSPTSMSTSIGERVTLNCKASQTVGINVDWYQQTPGQPPKLLIYGASNRHTGVPDRFTGSGFGRDFTLTISNVEAEDLAVYCCLQYGSIPHTFGPGTKLELKR | 4.07 nM | 4.99 nM | 3.76 nM
anti-E-selectin antibody 0159 chimera (antibody, human IgG1, kappa, V domains shown, rat VH/VL on effector-null human IgG1 and human kappa) VH: EVQLQQSGAELGKPGTSVKLSCKVSGYNIRSTYMHWVSQRPGKGLEWIGRIDPANGNTIYAEKFKRKATLTADTSSNTAYMQLSQLKSDDRAIYFCAMEVRVSFEYWGQGVMVTVSS VL: DIQMTQSPSFLSASVGDRVTINCKASQNINKYLDWYQQKLGEGPKLLIYYTNNLHTGIPSRFSGSGSGTDFTLTISSLQPEDVATYFCLQHDSGYTFGAGTKLELKR | 3.37 nM | 2.44 nM | 3.24 nM
anti-E-selectin antibody 0170 chimera (antibody, human IgG1, kappa, V domains shown, rat VH/VL on effector-null human IgG1 and human kappa) VH: EVQLQQSGAELGKPGTSVKLSCKVSGYSIRSTYMHWVNQRPGKGLEWVGRIDPANGNTIYAERFKNKATLTADTSSNTAYMQLSQLKSDDTAIYFCAVEILGIFDYWGQGVMVTVSS VL: DIQMTQSPSFLSASVGDRVTINCKASQNIDKYLDWYQQKLGEAPKLLMYNTNSLHTGIPSRFSGSGSGTDFTLTISSLQPEDVATYFCLQHNSGYTFGAGTKLELKR | 3.76 nM | 1.99 nM | 2.3 nM
